Source: US20260167699A1 (Chugai, published 2026)
Where a chain is given by its changes, count along the chain named.

T1: FcγRIIa(H) extracellular domain with C-terminal His tag (human, UniProt P12318 34-217)
T1 construct: extracellular domain; H131 allotype; also called 2aH; CD32
T1 sequence: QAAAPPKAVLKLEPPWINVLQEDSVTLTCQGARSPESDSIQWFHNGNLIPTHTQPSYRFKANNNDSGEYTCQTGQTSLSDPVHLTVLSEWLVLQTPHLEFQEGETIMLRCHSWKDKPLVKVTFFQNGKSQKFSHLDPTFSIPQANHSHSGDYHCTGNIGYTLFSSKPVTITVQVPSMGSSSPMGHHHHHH

T2: FcγRIIa(R) extracellular domain with C-terminal His tag (human, UniProt P12318 34-217)
T2 construct: extracellular domain; R131 allotype; also called 2aR; CD32
T2 sequence: T1 sequence with H134R

T3: FcγRIIb extracellular domain with C-terminal His tag (human, UniProt P31994 43-217)
T3 construct: extracellular domain; also called 2b; CD32
T3 sequence: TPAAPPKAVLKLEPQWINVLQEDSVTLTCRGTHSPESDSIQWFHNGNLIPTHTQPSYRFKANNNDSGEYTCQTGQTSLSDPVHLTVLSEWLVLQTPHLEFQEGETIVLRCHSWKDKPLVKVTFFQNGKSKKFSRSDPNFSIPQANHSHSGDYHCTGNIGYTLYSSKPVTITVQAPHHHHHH

B1: GpH7-A5/GpH7-B3 variant I336_10E/GpL16-k0 (antibody, human IgG1, kappa)
heavy 1: not shown
heavy 2: not shown
light: DIVMTQSPLSLPVTPGEPASISCQASESLVHSNRNTYLHWYLQKPGQSPQLLIYKVSNRFSGVPDRFSGSGSGTDFTLKISRVEAEDVGVYYCSQNTHVPPTFGQGTKVEIERTVAAPSVFIFPPSDEQLKSGTASVVCLLNNFYPREAKVQWKVDNALQSGNSQESVTEQDSKDSTYSLSSTLTLSKADYEKHKVYACEVTHQGLSSPVTKSFNRGEC
notes: heterodimerized IgG1 (He Ab), mutation in one H chain only; also called He Ab
B2: GpH7-A5/GpH7-B3 variant I336_11K/GpL16-k0 (antibody, human IgG1, kappa)
heavy 1: not shown
heavy 2: not shown
light: B1 light
notes: as for B1
B3: GpH7-A5/GpH7-B3 variant I336_12R/GpL16-k0 (antibody, human IgG1, kappa)
heavy 1: not shown
heavy 2: not shown
light: B1 light
notes: as for B1
B4: GpH7-A5/GpH7-B3 variant I336_13S/GpL16-k0 (antibody, human IgG1, kappa)
heavy 1: not shown
heavy 2: not shown
light: B1 light
notes: as for B1
B5: GpH7-A5/GpH7-B3 variant I336_14T/GpL16-k0 (antibody, human IgG1, kappa)
heavy 1: not shown
heavy 2: not shown
light: B1 light
notes: as for B1
B6: GpH7-A5/GpH7-B3 variant I336_15Y/GpL16-k0 (antibody, human IgG1, kappa)
heavy 1: not shown
heavy 2: not shown
light: B1 light
notes: as for B1
B7: GpH7-A5/GpH7-B3 variant I336_16H/GpL16-k0 (antibody, human IgG1, kappa)
heavy 1: not shown
heavy 2: not shown
light: B1 light
notes: as for B1
B8: GpH7-A5/GpH7-B3 variant I336_18N/GpL16-k0 (antibody, human IgG1, kappa)
heavy 1: not shown
heavy 2: not shown
light: B1 light
notes: as for B1
B9: GpH7-A5/GpH7-B3 variant I336_19Q/GpL16-k0 (antibody, human IgG1, kappa)
heavy 1: not shown
heavy 2: not shown
light: B1 light
notes: as for B1
B10: GpH7-A5/GpH7-B3 variant K334_01G/GpL16-k0 (antibody, human IgG1, kappa)
heavy 1: not shown
heavy 2: not shown
light: B1 light
notes: as for B1
B11: GpH7-A5/GpH7-B3 variant K334_02A/GpL16-k0 (antibody, human IgG1, kappa)
heavy 1: not shown
heavy 2: not shown
light: B1 light
notes: as for B1
B12: GpH7-A5/GpH7-B3 variant K334_03V/GpL16-k0 (antibody, human IgG1, kappa)
heavy 1: not shown
heavy 2: not shown
light: B1 light
notes: as for B1
B13: GpH7-A5/GpH7-B3 variant K334_04F/GpL16-k0 (antibody, human IgG1, kappa)
heavy 1: not shown
heavy 2: not shown
light: B1 light
notes: as for B1
B14: GpH7-A5/GpH7-B3 variant K334_05P/GpL16-k0 (antibody, human IgG1, kappa)
heavy 1: not shown
heavy 2: not shown
light: B1 light
notes: as for B1
B15: GpH7-A5/GpH7-B3 variant K334_06M/GpL16-k0 (antibody, human IgG1, kappa)
heavy 1: not shown
heavy 2: not shown
light: B1 light
notes: as for B1
B16: GpH7-A5/GpH7-B3 variant K334_07I/GpL16-k0 (antibody, human IgG1, kappa)
heavy 1: not shown
heavy 2: not shown
light: B1 light
notes: as for B1
B17: GpH7-A5/GpH7-B3 variant K334_08L/GpL16-k0 (antibody, human IgG1, kappa)
heavy 1: not shown
heavy 2: not shown
light: B1 light
notes: as for B1
B18: GpH7-A5/GpH7-B3 variant K334_09D/GpL16-k0 (antibody, human IgG1, kappa)
heavy 1: not shown
heavy 2: not shown
light: B1 light
notes: as for B1
B19: GpH7-A5/GpH7-B3 variant K334_10E/GpL16-k0 (antibody, human IgG1, kappa)
heavy 1: not shown
heavy 2: not shown
light: B1 light
notes: as for B1
B20: GpH7-A5/GpH7-B3 variant K334_12R/GpL16-k0 (antibody, human IgG1, kappa)
heavy 1: not shown
heavy 2: not shown
light: B1 light
notes: as for B1
B21: GpH7-A5/GpH7-B3 variant K334_13S/GpL16-k0 (antibody, human IgG1, kappa)
heavy 1: not shown
heavy 2: not shown
light: B1 light
notes: as for B1
B22: GpH7-A5/GpH7-B3 variant K334_14T/GpL16-k0 (antibody, human IgG1, kappa)
heavy 1: not shown
heavy 2: not shown
light: B1 light
notes: as for B1
B23: GpH7-A5/GpH7-B3 variant K334_15Y/GpL16-k0 (antibody, human IgG1, kappa)
heavy 1: not shown
heavy 2: not shown
light: B1 light
notes: as for B1
B24: GpH7-A5/GpH7-B3 variant K334_16H/GpL16-k0 (antibody, human IgG1, kappa)
heavy 1: not shown
heavy 2: not shown
light: B1 light
notes: as for B1
B25: GpH7-A5/GpH7-B3 variant K334_18N/GpL16-k0 (antibody, human IgG1, kappa)
heavy 1: not shown
heavy 2: not shown
light: B1 light
notes: as for B1
B26: GpH7-A5/GpH7-B3 variant K334_19Q/GpL16-k0 (antibody, human IgG1, kappa)
heavy 1: not shown
heavy 2: not shown
light: B1 light
notes: as for B1
B27: GpH7-A5/GpH7-B3 variant K334_20W/GpL16-k0 (antibody, human IgG1, kappa)
heavy 1: not shown
heavy 2: not shown
light: B1 light
notes: as for B1
B28: GpH7-A5/GpH7-B3 variant P331_02A/GpL16-k0 (antibody, human IgG1, kappa)
heavy 1: not shown
heavy 2: not shown
light: B1 light
notes: as for B1
B29: GpH7-A5/GpH7-B3 variant P331_03V/GpL16-k0 (antibody, human IgG1, kappa)
heavy 1: not shown
heavy 2: not shown
light: B1 light
notes: as for B1
B30: GpH7-A5/GpH7-B3 variant P331_04F/GpL16-k0 (antibody, human IgG1, kappa)
heavy 1: not shown
heavy 2: not shown
light: B1 light
notes: as for B1

Target: T1, FcγRIIa(H) extracellular domain with …
Test: SPR; % of GpH7-A5/GpH7-B3/GpL16-k0

Binder | He/Con 2aH [%]
B1 | 105
B2 | 103
B3 | 104
B4 | 101
B5 | 103
B6 | 84.6
B7 | 97.4
B8 | 107
B9 | 76.4
B10 | 92.5
B11 | 111
B12 | 126
B13 | 121
B14 | 112
B15 | 121
B16 | 126
B17 | 120
B18 | 95.6
B19 | 113
B20 | 114
B21 | 116
B22 | 118
B23 | 122
B24 | 119
B25 | 114
B26 | 116
B27 | 112
B28 | 93.9
B29 | 85.4
B30 | 87.7

Target: T2, FcγRIIa(R) extracellular domain with …
Test: SPR; % of GpH7-A5/GpH7-B3/GpL16-k0

Binder | He/Con 2aR [%]
B1 | 104
B2 | 104
B3 | 104
B4 | 97.4
B5 | 102
B6 | 83.1
B7 | 99.1
B8 | 110
B9 | 70.9
B10 | 127
B11 | 143
B12 | 160
B13 | 150
B14 | 141
B15 | 144
B16 | 155
B17 | 145
B18 | 127
B19 | 144
B20 | 151
B21 | 149
B22 | 153
B23 | 148
B24 | 149
B25 | 152
B26 | 149
B27 | 143
B28 | 105
B29 | 114
B30 | 110

Target: T4, FcγRIa extracellular domain with C-terminal His tag (human, UniProt P12314 16-292)
T4 construct: extracellular domain; also called 1a; CD64
Test: SPR; % of GpH7-A5/GpH7-B3/GpL16-k0

T4 sequence (P12314 other isoform, or with tags, fused parts or gaps): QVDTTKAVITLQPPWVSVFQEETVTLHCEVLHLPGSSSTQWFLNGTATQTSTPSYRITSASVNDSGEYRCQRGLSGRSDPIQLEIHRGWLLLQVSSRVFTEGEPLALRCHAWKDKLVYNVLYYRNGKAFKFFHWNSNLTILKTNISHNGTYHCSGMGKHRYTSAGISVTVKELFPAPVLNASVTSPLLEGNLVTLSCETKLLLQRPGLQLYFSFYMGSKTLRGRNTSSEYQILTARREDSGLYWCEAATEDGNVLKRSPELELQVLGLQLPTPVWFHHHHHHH

Binder | He/Con 1a [%]
B1 | 111
B2 | 109
B3 | 105
B4 | 106
B5 | 108
B6 | 106
B7 | 104
B8 | 111
B9 | 107
B10 | 98
B11 | 100
B12 | 99.1
B13 | 99.6
B14 | 98.7
B15 | 99
B16 | 98.7
B17 | 99.1
B18 | 101
B19 | 104
B20 | 98.2
B21 | 99.3
B22 | 99.2
B23 | 99.1
B24 | 99.3
B25 | 99
B26 | 100
B27 | 99.9
B28 | 105
B29 | 104
B30 | 108

Target: T3, FcγRIIb extracellular domain with …
Test: SPR; % of GpH7-A5/GpH7-B3/GpL16-k0

Binder | He/Con 2b [%]
B1 | 98.2
B2 | 98.7
B3 | 101
B4 | 91.5
B5 | 97.8
B6 | 74.5
B7 | 93.8
B8 | 107
B9 | 63.6
B10 | 119
B11 | 139
B12 | 161
B13 | 143
B14 | 136
B15 | 141
B16 | 154
B17 | 137
B18 | 122
B19 | 148
B20 | 144
B21 | 143
B22 | 149
B23 | 141
B24 | 146
B25 | 148
B26 | 141
B27 | 134
B28 | 110
B29 | 132
B30 | 122

Target: T5, FcγRIIIa extracellular domain with C-terminal His tag (human, UniProt P08637 17-208)
T5 construct: extracellular domain; also called 3a; CD16
Test: SPR; % of GpH7-A5/GpH7-B3/GpL16-k0

T5 sequence (P08637 other isoform, or with tags, fused parts or gaps): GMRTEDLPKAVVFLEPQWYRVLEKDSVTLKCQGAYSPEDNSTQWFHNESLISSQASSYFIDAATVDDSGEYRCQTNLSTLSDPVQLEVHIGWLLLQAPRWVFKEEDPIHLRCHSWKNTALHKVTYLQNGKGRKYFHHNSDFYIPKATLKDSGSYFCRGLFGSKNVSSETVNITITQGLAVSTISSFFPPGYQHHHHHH

Binder | He/Con 3a [%]
B1 | 114
B2 | 94.4
B3 | 88.8
B4 | 97.1
B5 | 103
B6 | 83.4
B7 | 92.8
B8 | 99.4
B9 | 88.4
B10 | 125
B11 | 152
B12 | 154
B13 | 152
B14 | 138
B15 | 149
B16 | 156
B17 | 148
B18 | 164
B19 | 186
B20 | 93.5
B21 | 150
B22 | 146
B23 | 145
B24 | 138
B25 | 140
B26 | 140
B27 | 132
B28 | 82.5
B29 | 66.9
B30 | 70.7
